For two substances, inhibition of VEGF-A-stimulated (10 ng/mL) growth of hMVECs, 100 nM protein and Kd results are on record in PMC3177407.

pKd: −log10 of the molar value.

In experiment [1] the target is Integrin α3β1 (UniProt P26006).
Experiment [2] has as its target integrin alpha3beta1 (Homo sapiens) (UniProt P26006). As to conditions: cited from earlier work.

Chain of TIMP-2 (P16035 27-220): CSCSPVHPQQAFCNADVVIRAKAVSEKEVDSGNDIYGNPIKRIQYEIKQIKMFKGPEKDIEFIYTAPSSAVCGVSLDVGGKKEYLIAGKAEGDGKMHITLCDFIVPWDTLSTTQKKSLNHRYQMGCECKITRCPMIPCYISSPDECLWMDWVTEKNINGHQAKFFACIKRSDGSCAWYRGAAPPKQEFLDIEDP
Chain of integrin alpha3beta1 (Homo sapiens) (P26006 33-991, chain 1 of 2): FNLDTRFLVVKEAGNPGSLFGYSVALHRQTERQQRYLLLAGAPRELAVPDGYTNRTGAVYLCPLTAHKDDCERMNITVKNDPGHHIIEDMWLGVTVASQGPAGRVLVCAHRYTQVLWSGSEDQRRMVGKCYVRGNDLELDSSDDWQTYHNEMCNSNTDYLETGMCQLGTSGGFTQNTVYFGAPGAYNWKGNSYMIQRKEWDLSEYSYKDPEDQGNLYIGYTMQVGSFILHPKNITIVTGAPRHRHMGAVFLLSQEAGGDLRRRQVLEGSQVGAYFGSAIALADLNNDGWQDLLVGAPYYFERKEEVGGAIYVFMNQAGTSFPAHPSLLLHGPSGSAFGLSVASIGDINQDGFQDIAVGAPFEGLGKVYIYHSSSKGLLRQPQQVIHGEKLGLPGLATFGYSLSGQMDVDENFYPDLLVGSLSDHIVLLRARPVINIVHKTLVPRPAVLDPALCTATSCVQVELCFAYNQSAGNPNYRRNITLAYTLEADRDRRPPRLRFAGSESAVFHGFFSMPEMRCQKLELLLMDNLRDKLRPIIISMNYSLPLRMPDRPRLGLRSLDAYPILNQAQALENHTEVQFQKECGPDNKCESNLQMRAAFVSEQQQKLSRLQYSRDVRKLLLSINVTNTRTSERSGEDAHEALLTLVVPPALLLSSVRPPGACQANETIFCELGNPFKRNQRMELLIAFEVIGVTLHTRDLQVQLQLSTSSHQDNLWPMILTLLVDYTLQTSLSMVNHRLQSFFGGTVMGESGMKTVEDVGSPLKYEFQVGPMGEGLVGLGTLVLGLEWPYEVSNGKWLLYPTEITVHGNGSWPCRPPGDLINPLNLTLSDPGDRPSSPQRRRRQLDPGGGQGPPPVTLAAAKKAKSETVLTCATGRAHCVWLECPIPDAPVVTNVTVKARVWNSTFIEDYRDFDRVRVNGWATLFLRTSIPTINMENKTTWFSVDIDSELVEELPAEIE
Chain of integrin alpha3beta1 (Homo sapiens) (P05556 21-728, chain 2 of 2, further chain): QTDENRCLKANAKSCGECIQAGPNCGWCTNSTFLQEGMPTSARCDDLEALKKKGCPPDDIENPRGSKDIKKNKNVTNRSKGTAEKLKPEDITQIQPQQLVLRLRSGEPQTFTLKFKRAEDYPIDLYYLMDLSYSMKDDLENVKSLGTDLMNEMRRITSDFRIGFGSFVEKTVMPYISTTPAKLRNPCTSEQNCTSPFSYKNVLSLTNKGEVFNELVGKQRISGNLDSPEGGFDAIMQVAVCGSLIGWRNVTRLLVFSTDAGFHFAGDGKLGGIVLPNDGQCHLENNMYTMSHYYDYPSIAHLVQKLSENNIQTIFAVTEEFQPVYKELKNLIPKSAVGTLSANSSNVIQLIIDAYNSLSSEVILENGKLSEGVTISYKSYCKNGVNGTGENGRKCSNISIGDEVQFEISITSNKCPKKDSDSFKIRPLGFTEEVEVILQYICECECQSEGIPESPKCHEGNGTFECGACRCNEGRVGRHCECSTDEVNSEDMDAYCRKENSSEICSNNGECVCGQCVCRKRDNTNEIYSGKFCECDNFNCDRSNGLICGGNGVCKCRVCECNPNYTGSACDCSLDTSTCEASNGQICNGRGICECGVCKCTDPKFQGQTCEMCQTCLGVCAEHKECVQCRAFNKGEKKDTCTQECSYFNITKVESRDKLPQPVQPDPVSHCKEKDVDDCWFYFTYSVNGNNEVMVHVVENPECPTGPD
Chain of Integrin α3β1 (P26006 33-1051, chain 1 of 2): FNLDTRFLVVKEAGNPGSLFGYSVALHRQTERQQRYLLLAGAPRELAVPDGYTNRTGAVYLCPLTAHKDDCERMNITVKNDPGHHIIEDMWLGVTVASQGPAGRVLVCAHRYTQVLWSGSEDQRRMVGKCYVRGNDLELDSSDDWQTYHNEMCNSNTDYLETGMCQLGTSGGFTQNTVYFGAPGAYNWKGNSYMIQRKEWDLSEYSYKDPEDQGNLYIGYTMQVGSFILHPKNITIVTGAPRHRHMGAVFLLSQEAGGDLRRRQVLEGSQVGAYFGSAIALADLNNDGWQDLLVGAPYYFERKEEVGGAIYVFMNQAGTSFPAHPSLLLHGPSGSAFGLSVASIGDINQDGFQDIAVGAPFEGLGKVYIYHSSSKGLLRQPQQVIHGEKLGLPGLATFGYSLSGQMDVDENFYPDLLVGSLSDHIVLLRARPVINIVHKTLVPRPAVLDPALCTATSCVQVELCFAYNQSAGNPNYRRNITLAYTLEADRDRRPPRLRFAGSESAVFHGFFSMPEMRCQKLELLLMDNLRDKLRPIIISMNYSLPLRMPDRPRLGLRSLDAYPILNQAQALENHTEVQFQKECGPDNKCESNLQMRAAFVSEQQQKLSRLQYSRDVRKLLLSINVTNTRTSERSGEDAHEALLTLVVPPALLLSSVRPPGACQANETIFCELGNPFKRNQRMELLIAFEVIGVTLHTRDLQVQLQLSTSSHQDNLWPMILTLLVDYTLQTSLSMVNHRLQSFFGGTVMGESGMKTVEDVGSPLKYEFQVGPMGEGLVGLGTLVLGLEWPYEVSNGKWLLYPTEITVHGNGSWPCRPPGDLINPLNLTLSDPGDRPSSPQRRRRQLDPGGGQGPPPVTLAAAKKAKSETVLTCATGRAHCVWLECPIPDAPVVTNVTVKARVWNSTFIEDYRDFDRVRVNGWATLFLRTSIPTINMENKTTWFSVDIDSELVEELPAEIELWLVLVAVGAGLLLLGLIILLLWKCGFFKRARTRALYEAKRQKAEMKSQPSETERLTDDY
Chain of Integrin α3β1 (P05556 21-728, chain 2 of 2, further chain): as the sequence (P05556 21-728, chain 2 of 2, further chain) above

The substance “Ala+TIMP-2 (from UniProt P16035 27-220) (natural protein)” gave an inhibition of VEGF-A-stimulated (10 ng/mL) growth of hMVECs, 100 nM protein in experiment [1] of 75%.

The term pKd denotes the Kd on a negative log10 scale, so that one unit is a factor of ten. On to TIMP-2 (from UniProt P16035), for which the pKd in experiment [2] was 9.05.
